Source: patent US20120058126A1 (Eli Lilly, published 2012)
Each block holds one binder with its values, some of them ahead of it.

What was measured:
[1] = molecular target: T1, VEGFR-3-cFMS chimeric receptor (extracellular domain of human VEGFR-3 fused with the transmembrane and … (human, UniProt P07333 518-972, limits assumed)); experiment: cell-based or functional assay
T1 sequence: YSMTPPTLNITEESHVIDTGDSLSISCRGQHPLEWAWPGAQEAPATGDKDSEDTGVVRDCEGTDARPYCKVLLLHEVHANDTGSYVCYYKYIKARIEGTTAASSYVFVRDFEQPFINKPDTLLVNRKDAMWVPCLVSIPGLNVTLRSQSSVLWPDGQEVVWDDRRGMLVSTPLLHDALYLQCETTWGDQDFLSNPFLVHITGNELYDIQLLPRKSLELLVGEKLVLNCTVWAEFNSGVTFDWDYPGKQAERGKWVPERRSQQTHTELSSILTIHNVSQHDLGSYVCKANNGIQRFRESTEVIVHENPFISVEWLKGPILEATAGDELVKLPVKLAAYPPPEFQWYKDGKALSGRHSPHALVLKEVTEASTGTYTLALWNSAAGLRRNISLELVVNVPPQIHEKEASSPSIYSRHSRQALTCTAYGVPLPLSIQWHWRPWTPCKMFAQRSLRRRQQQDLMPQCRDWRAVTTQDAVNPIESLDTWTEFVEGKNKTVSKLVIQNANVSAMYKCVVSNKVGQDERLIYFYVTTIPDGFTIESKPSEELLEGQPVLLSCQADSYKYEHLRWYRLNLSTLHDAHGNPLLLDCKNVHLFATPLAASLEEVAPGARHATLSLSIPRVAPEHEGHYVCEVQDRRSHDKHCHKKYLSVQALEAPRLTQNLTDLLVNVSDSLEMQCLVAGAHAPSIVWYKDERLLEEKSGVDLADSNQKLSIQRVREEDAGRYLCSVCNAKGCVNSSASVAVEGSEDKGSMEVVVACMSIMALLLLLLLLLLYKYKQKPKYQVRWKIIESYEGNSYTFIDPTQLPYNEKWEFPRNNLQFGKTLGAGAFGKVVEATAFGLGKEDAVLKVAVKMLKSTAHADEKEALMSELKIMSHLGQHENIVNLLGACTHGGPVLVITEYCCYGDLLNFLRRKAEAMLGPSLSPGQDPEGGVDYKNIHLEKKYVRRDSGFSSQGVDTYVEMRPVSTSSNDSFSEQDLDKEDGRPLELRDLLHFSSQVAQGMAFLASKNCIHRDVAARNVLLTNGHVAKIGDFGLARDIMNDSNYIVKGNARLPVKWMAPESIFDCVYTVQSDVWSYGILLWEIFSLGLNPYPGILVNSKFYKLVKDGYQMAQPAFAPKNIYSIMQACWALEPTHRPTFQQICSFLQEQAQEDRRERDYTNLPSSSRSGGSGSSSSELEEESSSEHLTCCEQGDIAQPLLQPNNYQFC

[2] = molecular target: T2, human sR3-AP (full-length soluble extracellular region of human VEGFR-3, Ig domains 1-7, fused to human … (human)); experiment: SPR, BIACORE 2000 at 20° C, sR3-AP immobilized, antibody injected at 0.8 to 6.25 nM
T2 construct: also called soluble extracellular domain of human VEGFR-3
Description: Sensograms are evaluated using the BIA Evaluation 3.2 program to determine the on rates (ka) and the off rates (kd). The dissociation constant (Kd) is calculated from the ka and kd rates using the equation: […].

[3] = molecular target: chimera 2 (human Ig1-mouse Ig2-mouse Ig3) sR3-AP (human; mouse, UniProt P05187 23-511); experiment: sR3-AP chimera binding assay on antibody-coated plates
Description: (§1) After 2 hr incubation, the plates are washed 5 times and bound sR3-AP is detected by chemiluminescence.
(§2) DNA sequences encoding mouse and human Ig domains 1-3 are swapped in various combinations to form the following VEGFR-3 extracellular domain constructs: i) wild-type human; ii) wild-type mouse; iii) chimera 1 (human Ig1-human Ig2-mouse Ig3); chimera 2 (human Ig1-mouse Ig2-mouse Ig3); (iv) chimera 3 (mouse Ig1-human Ig2-mouse Ig3) and (v) chimera 4 (human Ig1-mouse Ig2-human Ig3). The constructs are expressed as fusion proteins with alkaline phosphatase (AP) Persaud, et al., supra. The encoded proteins are isolated from conditioned media (CM) of transiently transfected cells and normalized to equal protein concentration and AP activity.

[4] = molecular target: chimera 4 (human Ig1-mouse Ig2-human Ig3) sR3-AP (human; mouse, UniProt P05187 23-511); experiment: as above
Description: as §1, §2

[5] = molecular target: T2, human sR3-AP (full-length soluble …); experiment: competitive VEGF-C blocking assay: Fab mixed with 50 ng sR3-AP, plates coated with VEGF-CΔNΔC, OD405; Fab, not IgG
Description: After an additional 2 hours, the plates are washed five times and p-nitrophenyl phosphate (Sigma) is added to quantify the bound sR3-AP molecules at OD₄₀₅ₙₘ.

incorporation of [3H]-TdR (mitogenic response) [1]: ≥ 3 fold
B1: recombinant mature human VEGF-CΔNΔC (ligand)
chain: AHYNTEILKSIDNEWRKTQCMPREVCIDVGKEFGVATNTFFKPPCVSVYRCGGCCNSEGLQCMNTSTSYLSKTLFEITVPLSQGPKPVTISFANHTSCRCMSKL

Kd [2]: 0.056 nM | binding result [3]: no binding | binding result [4]: no binding
B2: Antibody 1 (IgG form) (antibody, V domains shown)
VH: QVQLQQSGPGLVKPSQTLSLTCAISGDSVSGNSATWNWIRQSPSRGLEWLGRTYYRSKWNHDYAESVKSRITINPDTSKNQFSLQLNSVTPEDTAVYYCARGDSSSWYAFDYWGQGTLVTVSS
VL: EIVLTQSPGTLSLSLGERATLSCRASQSISSSFLAWYQQKPGQAPKLLIYAASTRATGIPDRFSGSGSGTDFTLTISRLEPEDFAVYYCQQYGRSLSFGGGTKVEVKR
notes: also called human anti-VEGFR-3 mAb

IC50 [5]: 2 nM
B3: Antibody 1 (Fab form) (Fab, V domains shown)
VH: B2 VH
VL: EIVLTQSPGTLSLSLGERATLSCRASQSISSSFLAWYQQKPGQAPKLLIYAASTRATGIPDRFSGSGSGTDFTLTISRLEPEDFAVYYCQQYGRSLSFGGGTKVEVK
notes: also called Fab of Antibody 1
